Target: T1, GLH-1(DQAD) (Caenorhabditis elegans, UniProt P34689 1-763, E500Q)
T1 sequence: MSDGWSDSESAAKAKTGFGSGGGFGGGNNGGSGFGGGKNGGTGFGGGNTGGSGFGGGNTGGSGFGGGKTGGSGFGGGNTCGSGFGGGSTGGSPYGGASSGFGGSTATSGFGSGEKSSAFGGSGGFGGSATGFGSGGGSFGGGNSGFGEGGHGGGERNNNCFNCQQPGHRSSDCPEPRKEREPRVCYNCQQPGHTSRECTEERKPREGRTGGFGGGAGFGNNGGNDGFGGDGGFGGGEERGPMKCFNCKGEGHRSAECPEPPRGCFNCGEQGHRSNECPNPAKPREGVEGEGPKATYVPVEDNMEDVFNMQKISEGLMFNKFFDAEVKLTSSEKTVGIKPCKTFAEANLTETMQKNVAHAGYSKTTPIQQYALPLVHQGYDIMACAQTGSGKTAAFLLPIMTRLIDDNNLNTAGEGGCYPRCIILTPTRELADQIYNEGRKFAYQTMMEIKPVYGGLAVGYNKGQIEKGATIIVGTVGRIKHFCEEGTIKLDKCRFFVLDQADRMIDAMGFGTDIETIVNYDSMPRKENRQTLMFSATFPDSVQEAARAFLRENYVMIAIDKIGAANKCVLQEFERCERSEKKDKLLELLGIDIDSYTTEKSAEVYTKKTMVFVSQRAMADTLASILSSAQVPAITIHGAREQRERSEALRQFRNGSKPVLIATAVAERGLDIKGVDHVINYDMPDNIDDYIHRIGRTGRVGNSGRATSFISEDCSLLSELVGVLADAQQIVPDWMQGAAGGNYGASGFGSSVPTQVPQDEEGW
Assay: EMSA; 2 mM ATP, 2 mM MgCl2; 10 uM protein, 2 uM RNA; strong ATP-dependent binding; 25 mM HEPES pH 7.4, 150 mM NaCl, 2 mM MgCl2, +/- 2 mM ATP, 30 min at RT; native 8% PAGE in TBE, cold room
Conditions: protein: recombinant; tags: FLAG; label: 5'-Cy3 (Methods); single strand

B1: 22-nt ssRNA oligo (ssRNA)
RNA: GUCAAAGAUAGCCUUGACCUUG
B1: binds.

Source: paper PMC9887883, “A family of C. elegans VASA homologs control Argonaute pathway specificity and promote transgenerational silencing”
